Consider six molecules from patent US20250388669A1 (published 2025).

For experiment [1], the target named is T1, CD40 (human, UniProt P25942 21-193).
T1 construct: In the reporter assay it is whole, on GS-H2-huCD40 cells; also called huCD40
As to the kind of experiment: CD40 binding (method not given).

Another experiment addresses T2, CD137 (human, UniProt Q07011 24-186).
T2 construct: In the reporter assay it is whole, on GS-H2-huCD137 cells; also called 4-1BB; huCD137
As to the kind of experiment: CD137 binding (method not given).

A further experiment concerns the target T3, B7H3 (UniProt Q5ZPR3 29-466, limits assumed).
T3 sequence (looked up): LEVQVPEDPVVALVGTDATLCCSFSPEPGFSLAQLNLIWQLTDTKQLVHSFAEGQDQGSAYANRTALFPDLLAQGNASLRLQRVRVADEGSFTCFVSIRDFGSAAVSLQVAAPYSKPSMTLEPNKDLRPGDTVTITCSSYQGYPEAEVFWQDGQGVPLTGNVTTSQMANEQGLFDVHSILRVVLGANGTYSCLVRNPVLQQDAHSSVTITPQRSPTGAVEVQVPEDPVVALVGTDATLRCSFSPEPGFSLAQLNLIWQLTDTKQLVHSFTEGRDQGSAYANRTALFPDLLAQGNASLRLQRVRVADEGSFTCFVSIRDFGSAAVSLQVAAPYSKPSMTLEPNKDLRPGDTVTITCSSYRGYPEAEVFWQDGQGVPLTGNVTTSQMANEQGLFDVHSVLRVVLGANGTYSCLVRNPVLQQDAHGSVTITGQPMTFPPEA
As to the kind of experiment: FCM or ELISA, graded.

Experiment [2] has as its target CD40 (UniProt P25942 21-193, limits assumed). As to the kind of experiment: FCM or ELISA, graded.

T1 sequence (P25942 21-193 limits assumed): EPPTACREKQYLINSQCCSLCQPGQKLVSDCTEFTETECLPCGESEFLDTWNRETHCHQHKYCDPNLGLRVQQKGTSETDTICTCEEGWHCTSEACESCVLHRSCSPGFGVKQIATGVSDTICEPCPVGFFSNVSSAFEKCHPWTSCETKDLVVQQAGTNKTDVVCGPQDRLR
Sequence of CD40 (UniProt P25942 21-193, limits assumed) (P25942 21-193 limits assumed): as above

B1: TM383 (antibody, V domains shown)
VH: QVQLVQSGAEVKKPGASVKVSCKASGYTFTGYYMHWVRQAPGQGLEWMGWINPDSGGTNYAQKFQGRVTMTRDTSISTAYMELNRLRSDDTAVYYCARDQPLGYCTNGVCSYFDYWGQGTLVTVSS
VL: DIQMTQSPSSVSASVGDRVTITCRASQGIYSWLAWYQQKPGKAPNLLIYTASTLQSGVPSRFSGSGSGTDFTLTISSLQPEDFATYYCQQANIFPLTFGGGTKVEIK
notes: Parent mAb; also called Anti-CD40 TM383; parent CD40 mAb
For the molecule B1, a half-maximal response in the experiment with CD40 [1] (EC50) required 0.48 µg/mL.

B2: Ly2281 (bispecific antibody)
chain 1: QVTLKESGPALVKPTQTLTLTCTFSGFSLSTSGTCVSWIRQPPGKALEWLATICWEDSKGYNPSLKSRLTISKDTSKNQAVLTMTNMDPVDTATYYCARREDSGYFWFPYWGQGTLVTVSSASTKGPSVFPLAPSSKSTSGGTAALGCLVKDYFPEPVTVSWNSGALTSGVHTFPAVLQSSGLYSLSSVVTVPSSSLGTQTYICNVNHKPSNTKVDKKVEPKSCGGGGSGGGGSGGGGSGGGGSQVQLVQSGAEVKKPGASVKVSCKASGYTFAGFEMHWVRQAPGQGLEWMGAIDPKTGGTDYNQKFKDRVTMTRDTSISTAYMELSRLRSDDTAVYYCARDLGYFDVWGQGTLVTVSSGGGGSDKTHTCPPCPAPEAAGPSVFLFPPKPKDTLMISRTPEVTCVVVDVSHEDPEVKFNWYVDGVEVHNAKTKPREEQYNSTYRVVSVLTVLHQDWLNGKEYKCKVSNKALPAPIEKTISKAKGQPREPQVYTLPPSREEMTKNQVSLWCLVKGFYPSDIAVEWESNGQPENNYKTTPPVLDSDGSFFLYSKLTVDKSRWQQGNVFSCSVMHEALHNHYTQKSLSLSPG
chain 2: QVTLKESGPALVKPTQTLTLTCTFSGFSLSTSGTCVSWIRQPPGKALEWLATICWEDSKGYNPSLKSRLTISKDTSKNQAVLTMTNMDPVDTATYYCARREDSGYFWFPYWGQGTLVTVSSASTKGPSVFPLAPSSKSTSGGTAALGCLVKDYFPEPVTVSWNSGALTSGVHTFPAVLQSSGLYSLSSVVTVPSSSLGTQTYICNVNHKPSNTKVDKKVEPKSCGGGGSGGGGSGGGGSGGGGSDIQMTQSPSSLSASVGDRVTITCRASQDIRSNLNWYQQKPGGAVKLLIYYTSRLHSGVPSRFSGSGSGTDYTLTISSLQPEDFATYFCQQSEKLPRTFGGGTKVEIRGGGGSDKTHTCPPCPAPEAAGPSVFLFPPKPKDTLMISRTPEVTCVVVDVSHEDPEVKFNWYVDGVEVHNAKTKPREEQYNSTYRVVSVLTVLHQDWLNGKEYKCKVSNKALPAPIEKTISKAKGQPREPQVYTLPPSREEMTKNQVSLSCAVKGFYPSDIAVEWESNGQPENNYKTTPPVLDSDGSFFLVSKLTVDKSRWQQGNVFSCSVMHEALHNRFTQKSLSLSPG
light: NIQMTQSPSSLSASVGDRVTITCKAGQNVNNYLAWYQQKPGKAPKVLIFNANSLQTGVPSRFSGSGSGTDFTLTISSLQPEDFATYYCQQYNSWPTFGGGTKVEIKRTVAAPSVFIFPPSDEQLKSGTASVVCLLNNFYPREAKVQWKVDNALQSGNSQESVTEQDSKDSTYSLSSTLTLSKADYEKHKVYACEVTHQGLSSPVTKSFNRGEC
notes: PD-1 Fabs, central CD137 Fv
Turning to B2, the response in the experiment with CD137 was half-maximal at 2.56 µg/mL (EC50).

B3: Ly2118 (other)
chain 1: QVQLVQSGAEVKKPGASVKVSCKASGYTFTSYVMHWVRQKPGQGLEWIGYINPYNEGTESTDKFKGRATMTSDKSTSTVYMELSSLRSEDTAVYYCASIYYGYEGTYFGVWGQGTLVTVSSASTKGPSVFPLAPSSKSTSGGTAALGCLVKDYFPEPVTVSWNSGALTSGVHTFPAVLQSSGLYSLSSVVTVPSSSLGTQTYICNVNHKPSNTKVDKKVEPKSCGGGGSGGGGSGGGGSGGGGSQVQLVQSGAEVKKPGASVKVSCKASGYTFAGFEMHWVRQAPGQGLEWMGAIDPKTGGTDYNQKFKDRVTMTRDTSISTAYMELSRLRSDDTAVYYCARDLGYFDVWGQGTLVTVSSGGGGSDKTHTCPPCPAPEAAGPSVFLFPPKPKDTLMISRTPEVTCVVVDVSHEDPEVKFNWYVDGVEVHNAKTKPREEQYNSTYRVVSVLTVLHQDWLNGKEYKCKVSNKALPAPIEKTISKAKGQPREPQVYTLPPSREEMTKNQVSLWCLVKGFYPSDIAVEWESNGQPENNYKTTPPVLDSDGSFFLYSKLTVDKSRWQQGNVFSCSVMHEALHNHYTQKSLSLSPGGGGGSGGGGSGGGGSGGGGSQVTLKESGPALVKPTQTLTLTCTFSGFSLSTSGTCVSWIRQPPGKALEWLATICWEDSKGYNPSLKSRLTISKDTSKNQAVLTMTNMDPVDTATYYCARREDSGYFWFPYWGQGTLVTVSS
chain 2: QVQLVQSGAEVKKPGASVKVSCKASGYTFTSYVMHWVRQKPGQGLEWIGYINPYNEGTESTDKFKGRATMTSDKSTSTVYMELSSLRSEDTAVYYCASIYYGYEGTYFGVWGQGTLVTVSSASTKGPSVFPLAPSSKSTSGGTAALGCLVKDYFPEPVTVSWNSGALTSGVHTFPAVLQSSGLYSLSSVVTVPSSSLGTQTYICNVNHKPSNTKVDKKVEPKSCGGGGSGGGGSGGGGSGGGGSDIQMTQSPSSLSASVGDRVTITCRASQDIRSNLNWYQQKPGGAVKLLIYYTSRLHSGVPSRFSGSGSGTDYTLTISSLQPEDFATYFCQQSEKLPRTFGGGTKVEIRGGGGSDKTHTCPPCPAPEAAGPSVFLFPPKPKDTLMISRTPEVTCVVVDVSHEDPEVKFNWYVDGVEVHNAKTKPREEQYNSTYRVVSVLTVLHQDWLNGKEYKCKVSNKALPAPIEKTISKAKGQPREPQVYTLPPSREEMTKNQVSLSCAVKGFYPSDIAVEWESNGQPENNYKTTPPVLDSDGSFFLVSKLTVDKSRWQQGNVFSCSVMHEALHNRFTQKSLSLSPGGGGGSGGGGSGGGGSGGGGSNIQMTQSPSSLSASVGDRVTITCKAGQNVNNYLAWYQQKPGKAPKVLIFNANSLQTGVPSRFSGSGSGTDFTLTISSLQPEDFATYYCQQYNSWPTFGGGTKVEIK
light: EIVLTQSPATLSLSPGERATLSCRASSSVSYMHWYQQKPGQAPRPWIYATSNLASGIPARFSGSRSGTDYTLTISSLEPEDFAVYYCQQWSSNTLTFGGGTKVEIKRTVAAPSVFIFPPSDEQLKSGTASVVCLLNNFYPREAKVQWKVDNALQSGNSQESVTEQDSKDSTYSLSSTLTLSKADYEKHKVYACEVTHQGLSSPVTKSFNRGEC
notes: Tri-specific antibody: B7H3 Fabs, central CD137 Fv, terminal PD-1 Fv
For the molecule B3, the EC50 with CD137 came to 1.78 µg/mL.

B4: Ly2434 (bispecific antibody, human IgG1, kappa)
heavy 1: QVQLVQSGAEVKKPGASVKVSCKASGYTFTSYVMHWVRQKPGQGLEWIGYINPYNEGTESTDKFKGRATMTSDKSTSTVYMELSSLRSEDTAVYYCASIYYGYEGTYFGVWGQGTLVTVSSASTKGPSVFPLAPSSKSTSGGTAALGCLVKDYFPEPVTVSWNSGALTSGVHTFPAVLQSSGLYSLSSVVTVPSSSLGTQTYICNVNHKPSNTKVDKKVEPKSCDKTHTCPPCPAPEAAGPSVFLFPPKPKDTLMISRTPEVTCVVVDVSHEDPEVKFNWYVDGVEVHNAKTKPREEQYNSTYRVVSVLTVLHQDWLNGKEYKCKVSNKALPAPIEKTISKAKGQPREPQVYTLPPSREEMTKNQVSLWCLVKGFYPSDIAVEWESNGQPENNYKTTPPVLDSDGSFFLYSKLTVDKSRWQQGNVFSCSVMHEALHNHYTQKSLSLSPGGGGGSGGGGSGGGGSGGGGSEVQLVESGGGLVQPGGSLRLSCAASGFTFTNYGLHWVRQAPGKGLEWVSSISPSGGVTYYRDSVKGRFTISRDNSKNTLYLQMNSLRAEDTAVYYCAKPFLGWGGANWIAHWGQGTLVTVSS
heavy 2: QVQLVQSGAEVKKPGASVKVSCKASGYTFTSYVMHWVRQKPGQGLEWIGYINPYNEGTESTDKFKGRATMTSDKSTSTVYMELSSLRSEDTAVYYCASIYYGYEGTYFGVWGQGTLVTVSSASTKGPSVFPLAPSSKSTSGGTAALGCLVKDYFPEPVTVSWNSGALTSGVHTFPAVLQSSGLYSLSSVVTVPSSSLGTQTYICNVNHKPSNTKVDKKVEPKSCDKTHTCPPCPAPEAAGPSVFLFPPKPKDTLMISRTPEVTCVVVDVSHEDPEVKFNWYVDGVEVHNAKTKPREEQYNSTYRVVSVLTVLHQDWLNGKEYKCKVSNKALPAPIEKTISKAKGQPREPQVYTLPPSREEMTKNQVSLSCAVKGFYPSDIAVEWESNGQPENNYKTTPPVLDSDGSFFLVSKLTVDKSRWQQGNVFSCSVMHEALHNRFTQKSLSLSPGGGGGSGGGGSGGGGSGGGGSDIQMTQSPSSLSASVGDRVTITCLASEDISNDLAWYQQKPGKAPKLLIYFVDRLLDGVPSRFSGSGSGTDFTLTISSLQPEDFATYYCQQSYKYPPTFGQGTKLEIK
light: B3 light
notes: B7H3 Fabs x terminal CD40 Fv (TM559)
With B4, the binding result with B7H3 and in the experiment with CD40 [2] was “binds” in each case.

B5: Ly2279 (bispecific antibody)
chain 1: not shown
chain 2: QVQLVQSGAEVKKPGASVKVSCKASGYTFTSYVMHWVRQKPGQGLEWIGYINPYNEGTESTDKFKGRATMTSDKSTSTVYMELSSLRSEDTAVYYCASIYYGYEGTYFGVWGQGTLVTVSSASTKGPSVFPLAPSSKSTSGGTAALGCLVKDYFPEPVTVSWNSGALTSGVHTFPAVLQSSGLYSLSSVVTVPSSSLGTQTYICNVNHKPSNTKVDKKVEPKSCGGGGSGGGGSGGGGSGGGGSDIQMTQSPSSVSASVGDRVTITCRASQGIYSWLAWYQQKPGKAPNLLIYTASTLQSGVPSRFSGSGSGTDFTLTISSLQPEDFATYYCQQANIFPLTFGGGTKVEIKGGGGSDKTHTCPPCPAPEAAGPSVFLFPPKPKDTLMISRTPEVTCVVVDVSHEDPEVKFNWYVDGVEVHNAKTKPREEQYNSTYRVVSVLTVLHQDWLNGKEYKCKVSNKALPAPIEKTISKAKGQPREPQVYTLPPSREEMTKNQVSLSCAVKGFYPSDIAVEWESNGQPENNYKTTPPVLDSDGSFFLVSKLTVDKSRWQQGNVFSCSVMHEALHNRFTQKSLSLSPG
light: B3 light
notes: B7H3 Fabs, central CD40 Fv
On to B5, for which it took 1.49 µg/mL to reach a half-maximal effect in the experiment with CD40 [1] (EC50).

B6: Ly1630 (antibody, V domains shown)
VH: QVQLVQSGAEVKKPGASVKVSCKASGYTFAGFEMHWVRQAPGQGLEWMGAIDPKTGGTDYNQKFKDRVTMTRDTSISTAYMELSRLRSDDTAVYYCARDLGYFDVWGQGTLVTVSS
VL: DIQMTQSPSSLSASVGDRVTITCRASQDIRSNLNWYQQKPGGAVKLLIYYTSRLHSGVPSRFSGSGSGTDYTLTISSLQPEDFATYFCQQSEKLPRTFGGGTKVEIR
notes: Parent mAb; also called Anti-CD137 Ly1630; parent anti-CD137 mAb
For the molecule B6, the EC50 with CD137 worked out at 0.08 µg/mL.
